Reference: patent US6509447B1, “G protein chimeras and methods of screening compounds” (Glaxo Welcome Inc., priority 1997, dated 2003)

What was measured:
[1] = tested on: purinergic nucleotide P2Y2 receptor; assay: CPRG assay, MMY11 cells expressing P2Y2 receptor plus Gα subunit; type: cell-based, human; parameters: key: weak activation insufficient to carry out curve-fitting was detected; NC: no coupling was detected
Experimental: Assay for combined FUS1-lacZ and FUS1-HIS3 Expression. In vivo assays of reporter gene induction (CPRG assays) were carried out by suspending cells to 0.02 OD600 in 200 μl SC-glucose (2%) lacking tryptophan, uracil and histidine. This medium was supplemented with agonists, and additionally 10 mM 3-aminotriazole and the β-galactosidase (lacZ) substrate chlorophenolred-β-D-galactopyranoside (CPRG; Boehringer) to a concentration of 0.1 mg/ml. To visualise the colour change reaction, the medium was buffered to pH 7 with 0.1 M sodium phosphate. The assay was conducted in a 96-well microtitre plate format. Plates were incubated for 24 hours without agitation, and absorbance at 570 nm was determined using a Victor microtitre plate reader (Wallac). EC50 values (+/−standard error) were estimated by curve-fitting, using the Robosage software package.
MMY11 was used in an experiment in which cells were transformed with pairs of plasmids as before, one to express a Gα subunit and the other a receptor expression construct. […] Where pheromone response pathway activation was detected, the agonist concentration required to yield a half-maximal response (EC50+/−standard error; all values in nM except where otherwise indicated) was determined by curve-fitting, and is shown in Table 4A. Where no coupling was detected, this is also indicated (NC).

Ste2p = target: T1, Ste2p (Saccharomyces cerevisiae, UniProt D6VTK4); assay: Reverse halo assay for FUS1-HIS3 expression, MMY9 cells, Ste2p; type: cell-based; parameters: stimulates the endogenous yeast receptor Ste2p; endogenous in cells; host or cells: Saccharomyces cerevisiae strain MMY9 (derived from W303-1A, MATa); details: MMY9 cells with pRS314-GPA1, 3 nmol α-factor
T1 sequence (D6VTK4 1-431): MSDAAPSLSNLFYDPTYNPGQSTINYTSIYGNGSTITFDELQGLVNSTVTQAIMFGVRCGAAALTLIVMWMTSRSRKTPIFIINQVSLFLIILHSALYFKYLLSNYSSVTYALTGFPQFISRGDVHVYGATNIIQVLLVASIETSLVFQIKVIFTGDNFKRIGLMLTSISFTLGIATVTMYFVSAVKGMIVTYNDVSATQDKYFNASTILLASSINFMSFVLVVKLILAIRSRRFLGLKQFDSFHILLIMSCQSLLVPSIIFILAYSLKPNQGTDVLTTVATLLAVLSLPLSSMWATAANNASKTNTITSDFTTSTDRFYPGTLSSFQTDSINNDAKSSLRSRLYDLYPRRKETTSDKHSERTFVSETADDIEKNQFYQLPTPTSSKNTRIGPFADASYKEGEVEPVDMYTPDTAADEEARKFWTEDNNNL
Experimental: Assay for FUS1-HIS3 Expression. Reverse halo assays were carried out by growing MMY9 cells to early stationary phase (OD600≈4) in liquid SC-glucose (2%) medium lacking tryptophan and uracil. A uniform layer of cells (5×10^7) was plated to 22.5 cm by 22.5 cm bioassay dishes (Nunc) in 100 ml SC-glucose agar (1%) equilibrated to 50° C. This medium lacked tryptophan, uracil and histidine, and was supplemented with 10 mM 3-aminotriazole, and buffered to pH 7.0 with 0.1M sodium phosphate. Antibiotic discs were placed on the solidified agar, and a volume of agonist solution (1-5 μl) was applied to each disc. Plates were incubated at 30° C. for 3 days.
The four receptors were: the melatonin ML1B receptor, the serotonin 5HT1A receptor, the somatostatin SST2 receptor and the purinergic nucleotide receptor, P2Y2. […] Activation of the pheromone response pathway was monitored with two integrated reporter genes: […] allowing a growth readout in medium lacking histidine, and FUS1-lacZ allowing a β-galactosidase readout. […] Agonist-dependent activation of FUS1-HIS3 was determined by reverse halo assay in which agonists were applied to the filter discs in the arrangement shown in panel A, in quantities as follows: 3 nmol of somatostatin-14 (S-14); 40 nmol of melatonin (Mel); 3 nmol of α-factor; 100 nmol of UTP; 40 nmol of serotonin (5-HT). […]

purinergic nucleotide P2Y2 receptor, sequence (P41231 1-347 limits assumed): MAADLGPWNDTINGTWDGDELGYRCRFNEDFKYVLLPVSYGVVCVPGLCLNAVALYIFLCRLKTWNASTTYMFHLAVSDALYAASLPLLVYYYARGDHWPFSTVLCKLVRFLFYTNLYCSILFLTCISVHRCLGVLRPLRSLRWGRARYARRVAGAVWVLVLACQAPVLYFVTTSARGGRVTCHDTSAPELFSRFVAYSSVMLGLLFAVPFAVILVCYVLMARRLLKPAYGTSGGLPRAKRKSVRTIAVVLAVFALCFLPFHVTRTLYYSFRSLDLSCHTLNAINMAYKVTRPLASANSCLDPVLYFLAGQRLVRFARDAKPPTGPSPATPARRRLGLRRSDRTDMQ

B1: Gpa1p: endogenous yeast Gα subunit, product of the GPA1 gene (protein, UniProt P08539 2-472, looked up)
Guanine nucleotide-binding …: GCTVSTQTIGDESDPFLQNKRANDVIEQSLQLEKQRDKNEIKLLLLGAGESGKSTVLKQLKLLHQGGFSHQERLQYAQVIWADAIQSMKILIIQARKLGIQLDCDDPINNKDLFACKRILLKAKALDYINASVAGGSDFLNDYVLKYSERYETRRRVQSTGRAKAAFDEDGNISNVKSDTDRDAETVTQNEDADRNNSSRINLQDICKDLNQEGDDQMFVRKTSREIQGQNRRNLIHEDIAKAIKQLWNNDKGIKQCFARSNEFQLEGSAAYYFDNIEKFASPNYVCTDEDILKGRIKTTGITETEFNIGSSKFKVLDAGGQRSERKKWIHCFEGITAVLFVLAMSEYDQMLFEDERVNRMHESIMLFDTLLNSKWFKDTPFILFLNKIDLFEEKVKSMPIRKYFPDYQGRVGDAEAGLKYFEKIFLSLNKTNKPIYVKRTCATDTQTMKFVLSAVTDLIIQQNLKKIGII
In the case of B1, the “coupling class where no EC50 could be fitted” value [1] is reported as “weak” and the “agonist-dependent activation of FUS1-HIS3 (halo of cell growth)” value (Ste2p) is reported as “increased expression of FUS1-HIS3 to enable a halo of cell growth”.
